10 substances from article PMC12990809 can be followed below.

What all share (assay): pulldown
What all share (conditions): 20 nM protein, 1.5 uM RNA pool; 20 mM HEPES pH 7.8, 70 mM KCl, 10 mM NaCl, 10% glycerol, 2 mM DTT, 0.1 ug/uL BSA; 30 min, 4 C

For data set [1], the target named is T1, T07F10.3 (Caenorhabditis elegans) (UniProt Q22318).
T1 sequence: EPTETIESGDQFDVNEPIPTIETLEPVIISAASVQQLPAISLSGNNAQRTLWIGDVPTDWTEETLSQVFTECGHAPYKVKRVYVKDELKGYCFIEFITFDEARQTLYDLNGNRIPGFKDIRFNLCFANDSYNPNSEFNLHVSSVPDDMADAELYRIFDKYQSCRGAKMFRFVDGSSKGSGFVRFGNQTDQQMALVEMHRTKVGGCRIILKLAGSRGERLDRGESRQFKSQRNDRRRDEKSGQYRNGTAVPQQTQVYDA

Data set [2] concerns the target T2, Tb927.5.810 S125L (Trypanosoma brucei) (UniProt Q57W26).
T2 sequence: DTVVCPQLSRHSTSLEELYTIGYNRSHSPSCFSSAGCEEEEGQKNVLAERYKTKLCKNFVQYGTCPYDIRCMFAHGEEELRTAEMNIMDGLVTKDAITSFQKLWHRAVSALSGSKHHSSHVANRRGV

Data set [3] concerns the target khdrbs1b (Tetraodon nigroviridis) (UniProt H3D6B2).
For data set [4], the target named is T3, PK21303.1 (Cannabis sativa) (UniProt A0A803NH45).
T3 sequence: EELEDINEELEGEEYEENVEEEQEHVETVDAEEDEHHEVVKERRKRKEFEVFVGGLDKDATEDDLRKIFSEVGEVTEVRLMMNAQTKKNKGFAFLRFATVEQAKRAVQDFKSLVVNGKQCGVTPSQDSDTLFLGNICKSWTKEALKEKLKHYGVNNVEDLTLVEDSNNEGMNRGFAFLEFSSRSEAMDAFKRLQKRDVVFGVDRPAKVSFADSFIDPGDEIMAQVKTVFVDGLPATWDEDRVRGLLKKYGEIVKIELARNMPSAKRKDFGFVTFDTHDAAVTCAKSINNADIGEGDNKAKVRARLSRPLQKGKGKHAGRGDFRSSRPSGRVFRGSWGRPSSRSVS

Data set [5] addresses T4, Tb927.6.4960 Q72H;T102A;A103T (Trypanosoma brucei) (UniProt Q586G8).
T4 sequence: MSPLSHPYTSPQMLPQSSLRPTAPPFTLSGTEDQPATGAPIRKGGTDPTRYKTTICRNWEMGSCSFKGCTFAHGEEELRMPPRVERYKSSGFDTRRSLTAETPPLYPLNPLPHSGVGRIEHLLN

For data set [6], the target named is T5, ENSXETG00000023721 (Xenopus tropicalis) (UniProt A0A803KLF2).
T5 sequence: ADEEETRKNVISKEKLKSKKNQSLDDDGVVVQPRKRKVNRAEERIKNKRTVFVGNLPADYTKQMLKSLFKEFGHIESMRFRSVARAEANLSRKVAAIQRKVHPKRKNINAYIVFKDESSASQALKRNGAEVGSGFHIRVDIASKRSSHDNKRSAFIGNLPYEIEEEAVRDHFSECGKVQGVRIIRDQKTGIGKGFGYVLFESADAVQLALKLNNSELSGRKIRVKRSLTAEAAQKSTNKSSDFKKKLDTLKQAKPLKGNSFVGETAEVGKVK

For data set [7], the target named is ENSTNIG00000011257 (Tetraodon nigroviridis) (UniProt H3D110).
Sequence of ENSTNIG00000011257 (Tetraodon nigroviridis) (H3D110 entry or part of it): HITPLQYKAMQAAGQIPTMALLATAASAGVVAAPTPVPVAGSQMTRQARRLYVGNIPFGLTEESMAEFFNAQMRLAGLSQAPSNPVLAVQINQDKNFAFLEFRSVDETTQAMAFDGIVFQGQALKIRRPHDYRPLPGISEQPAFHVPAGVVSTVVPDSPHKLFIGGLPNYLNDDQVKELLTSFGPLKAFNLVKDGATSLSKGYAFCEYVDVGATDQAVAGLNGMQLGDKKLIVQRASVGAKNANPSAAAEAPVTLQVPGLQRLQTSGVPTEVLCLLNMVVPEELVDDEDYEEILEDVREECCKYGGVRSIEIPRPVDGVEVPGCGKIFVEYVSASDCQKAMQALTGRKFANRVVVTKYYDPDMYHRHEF
Data set [8] deals with T6, TIA1 (Tetraodon nigroviridis) (UniProt H3D1J1).
T6 sequence: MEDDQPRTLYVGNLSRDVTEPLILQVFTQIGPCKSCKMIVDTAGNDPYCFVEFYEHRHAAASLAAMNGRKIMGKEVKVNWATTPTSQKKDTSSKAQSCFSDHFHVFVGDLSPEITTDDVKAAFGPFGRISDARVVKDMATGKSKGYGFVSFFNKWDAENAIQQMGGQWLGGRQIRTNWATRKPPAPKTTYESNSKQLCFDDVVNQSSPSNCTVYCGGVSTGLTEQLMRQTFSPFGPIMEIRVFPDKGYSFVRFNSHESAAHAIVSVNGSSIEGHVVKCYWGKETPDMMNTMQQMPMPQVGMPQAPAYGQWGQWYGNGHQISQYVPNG

Data set [9] has as its target T7, CBG00421 (Caenorhabditis briggsae) (UniProt A8WN19).
T7 sequence: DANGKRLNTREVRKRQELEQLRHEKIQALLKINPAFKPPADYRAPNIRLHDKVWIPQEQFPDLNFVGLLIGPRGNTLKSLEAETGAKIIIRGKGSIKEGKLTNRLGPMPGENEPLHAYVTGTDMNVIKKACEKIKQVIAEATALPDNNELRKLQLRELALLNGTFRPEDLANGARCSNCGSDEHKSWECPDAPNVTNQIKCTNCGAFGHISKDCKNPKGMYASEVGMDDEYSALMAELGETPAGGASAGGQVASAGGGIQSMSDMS

Data set [10] addresses u2af2b (Tetraodon nigroviridis) (UniProt H3CRP7).

Sequence of u2af2b (Tetraodon nigroviridis) (H3CRP7 entry or part of it): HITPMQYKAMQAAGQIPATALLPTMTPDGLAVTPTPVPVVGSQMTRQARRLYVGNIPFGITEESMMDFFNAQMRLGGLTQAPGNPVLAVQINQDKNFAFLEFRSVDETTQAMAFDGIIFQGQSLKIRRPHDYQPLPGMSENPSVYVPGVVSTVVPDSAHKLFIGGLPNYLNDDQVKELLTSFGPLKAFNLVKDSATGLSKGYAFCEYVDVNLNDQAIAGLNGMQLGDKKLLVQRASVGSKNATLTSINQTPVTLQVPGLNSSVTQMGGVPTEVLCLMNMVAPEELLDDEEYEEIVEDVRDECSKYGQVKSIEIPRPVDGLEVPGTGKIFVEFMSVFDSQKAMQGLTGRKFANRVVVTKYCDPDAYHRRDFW
Sequence of khdrbs1b (Tetraodon nigroviridis) (H3D6B2 entry or part of it): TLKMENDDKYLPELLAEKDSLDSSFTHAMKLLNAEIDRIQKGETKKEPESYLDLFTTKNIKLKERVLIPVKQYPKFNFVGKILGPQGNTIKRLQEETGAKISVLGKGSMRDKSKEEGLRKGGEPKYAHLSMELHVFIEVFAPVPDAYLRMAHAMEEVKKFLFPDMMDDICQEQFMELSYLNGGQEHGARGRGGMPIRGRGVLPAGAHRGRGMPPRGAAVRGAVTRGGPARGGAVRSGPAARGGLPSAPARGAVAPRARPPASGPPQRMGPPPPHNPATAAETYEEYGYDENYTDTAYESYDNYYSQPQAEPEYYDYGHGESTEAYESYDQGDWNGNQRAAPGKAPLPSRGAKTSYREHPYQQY

The substance AUAAUAA [RNAcompete motif RNCMPT00821] yielded a binding signal (z-score (mean of top ten 7-mers)) in data set [1] of 8.08. For the substance UAUUAUU [RNAcompete motif RNCMPT00837], the binding signal (z-score (mean of top ten 7-mers)) in data set [2] was determined as 13. AUAAAAG [RNAcompete motif RNCMPT01673]: the binding signal (z-score (mean of top ten 7-mers)) in [3] came out at 8.63.

With AGAAGGA [RNAcompete motif RNCMPT00831], the binding signal (z-score (mean of top ten 7-mers)) in data set [4] was 6.57. In data set [5], UAAUAA [RNAcompete motif RNCMPT00833] yielded a binding signal (z-score (mean of top ten 7-mers)) of 13.9. Consider GAACG [RNAcompete motif RNCMPT00828], for which the binding signal (z-score (mean of top ten 7-mers)) in data set [6] was 10.8. UUUUUU [RNAcompete motif RNCMPT01671] showed a binding signal (z-score (mean of top ten 7-mers)) in [7] of 12.3. UUUUUU [RNAcompete motif RNCMPT01672] registered a binding signal (z-score (mean of top ten 7-mers)) in [8] of 8.74. Turning to GANUAAU [RNAcompete motif RNCMPT00840], the binding signal (z-score (mean of top ten 7-mers)) in data set [9] amounted to 14.5. In data set [10], UUUUUCC [RNAcompete motif RNCMPT01670] returned a binding signal (z-score (mean of top ten 7-mers)) of 10.4.
